Data set [1] addresses A. eutrophus PHA synthase (Cupriavidus necator, UniProt P23608). The conditions noted are these: read-out: apparent Km (substrate concentration at half-optimal velocity); enzyme 0.95 mg/ml; 40 or 200 μl assay volumes; FIG. 10.
A short description of data set [2]: Storage stability of PHA synthase purified from insect cells. It counts as physicochemical. The method, then: Fraction collection tubes were prepared by addition of […] of 100 mM EDTA to provide a metalloprotease inhibitor at 1 mM immediately after HA chromatography. PHA synthase was eluted in a broad peak between 110-180 mM KPi. Fractions (3 ml) containing significant PHA synthase activity were pooled and stored at 0° C. until the entire soluble fraction had been run through the chromatographic process. Pooled fractions then were concentrated at 4° C. by use of a Centriprep-30 concentrator (Amicon) to 3.8 mg/ml. Aliquots (0.5 ml) were either flash frozen and stored in liquid N2 or glycerol was added to a final concentration of 50% and samples (1.9 mg/ml) were stored at −20° C.
PHA synthase purified from insect cells appears to be relatively stable.

Data set [3] concerns the molecule itself. The experiment in a line: size exclusion chromatography of native protein (forms of about 100-160 kDa and 50-80 kDa). (In general: In gel filtration, larger molecules generally elute earlier.)

In the case of 3-hydroxybutyrate CoA [HBCoA], the Km in data set [1] is 2.5 mM.

B1: A. eutrophus PHA synthase (phbC gene product) produced in insect cells with a baculovirus vector (enzyme, Alcaligenes eutrophus, UniProt P23608 7-589, looked up)
chain: AAASTQEGKSQPFKVTPGPFDPATWLEWSRQWQGTEGNGHAAASGIPGLDALAGVKIAPAQLGDIQQRYMKDFSALWQAMAEGKAEATGPLHDRRFAGDAWRTNLPYRFAAAFYLLNARALTELADAVEADAKTRQRIRFAISQWVDAMSPANFLATNPEAQRLLIESGGESLRAGVRNMMEDLTRGKISQTDESAFEVGRNVAVTEGAVVFENEYFQLLQYKPLTDKVHARPLLMVPPCINKYYILDLQPESSLVRHVVEQGHTVFLVSWRNPDASMAGSTWDDYIEHAAIRAIEVARDISGQDKINVLGFCVGGTIVSTALAVLAARGEHPAASVTLLTTLLDFADTGILDVFVDEGHVQLREATLGGGAGAPCALLRGLELANTFSFLRPNDLVWNYVVDNYLKGNTPVPFDLLFWNGDATNLPGPWYCWYLRHTYLQNELKVPGKLTVCGVPVDLASIDVPTYIYGSREDHIVPWTAAYASTALLANKLRFVLGASGHIAGVINPPAKNKRSHWTNDALPESPQQWLAGAIEHHGSWWPDWTAWLAGQAGAKRAAPANYGNARYRAIEPAPGRYVKAKA
notes: Denatured on SDS-PAGE for the Western blots; Size exclusion chromatography used the native purified protein; also called PHB synthase; 64 kDa protein
On to B1, for which the results for the synthase activity remained result in data set [2] (after 7 weeks stored at −20° C. in the presence of 50% glycerol) and in data set [2] (after 7 weeks stored in liquid N2) were “approximately 75%” and “approximately 50%”, respectively. The binding result in data set [3] is given as “binds”.

(Values after patent US20030073824A1, “DNA encoding methymycin and pikromycin” (priority 1999, published 2003).)
